Assay results: publication PMC9436306 (Proceedings of the National Academy of Sciences of the …, 2022)

Columns and labels:
[1] = target: T1, ESCRT-I complex (TSG101, VPS28, VPS37B, MVB12A), Cy3-labeled (human, UniProt Q99816 1-390; Q9UK41 1-221; Q9H9H4 1-285; Q96EY5 1-273); experiment: recruitment to giant unilamellar vesicles (GUVs), confocal fluorescence microscopy; ESCRT-I/II pathway: ALG-2 200 nM, ESCRT-I (Cy3) 50 nM, with or without ESCRT-II 200 nM and CHMP6 (Atto 488) 400 nM, incubated 15 min in reaction buffer, then 30% DOPS GUVs added and imaged after 15 min; ESCRT-I kept at a concentration at which it did not bind GUVs on its own; conditions: both partners purified
T1 construct: TSG101, subunit of human ESCRT-I; VPS28, subunit of human ESCRT-I; VPS37B, subunit of human ESCRT-I; MVB12A, subunit of human ESCRT-I; Labeled with sulpho-Cy3 maleimide on native surface-exposed cysteines; It calls human ESCRT-I a soluble heterotetramer; also called ESCRT-I (Cy3); source: HEK293 cells, purified (StrepTactin Sepharose, gel filtration); copies: + + +
T1 sequence (Q99816 whole entry, chain 1 of 4, other chains not shown): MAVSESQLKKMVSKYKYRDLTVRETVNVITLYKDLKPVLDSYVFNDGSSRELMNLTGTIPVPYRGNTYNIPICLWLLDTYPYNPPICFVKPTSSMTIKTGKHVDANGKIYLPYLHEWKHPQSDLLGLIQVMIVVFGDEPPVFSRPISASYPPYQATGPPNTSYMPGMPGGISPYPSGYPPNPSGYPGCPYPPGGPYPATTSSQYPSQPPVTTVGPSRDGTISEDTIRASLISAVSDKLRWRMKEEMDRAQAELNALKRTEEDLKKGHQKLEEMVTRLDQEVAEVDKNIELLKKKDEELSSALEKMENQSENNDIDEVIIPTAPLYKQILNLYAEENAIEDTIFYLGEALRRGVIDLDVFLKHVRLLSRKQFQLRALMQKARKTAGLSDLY
T1 sequence (Q9UK41 whole entry, chain 2 of 4, other chains not shown): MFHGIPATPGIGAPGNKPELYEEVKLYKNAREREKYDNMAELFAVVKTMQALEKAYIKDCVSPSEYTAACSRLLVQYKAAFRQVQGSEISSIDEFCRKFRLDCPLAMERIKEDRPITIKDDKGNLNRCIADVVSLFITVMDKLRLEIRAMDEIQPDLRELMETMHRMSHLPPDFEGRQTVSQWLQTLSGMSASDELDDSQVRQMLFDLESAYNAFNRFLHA
T1 sequence (Q9H9H4 whole entry, chain 3 of 4, other chains not shown): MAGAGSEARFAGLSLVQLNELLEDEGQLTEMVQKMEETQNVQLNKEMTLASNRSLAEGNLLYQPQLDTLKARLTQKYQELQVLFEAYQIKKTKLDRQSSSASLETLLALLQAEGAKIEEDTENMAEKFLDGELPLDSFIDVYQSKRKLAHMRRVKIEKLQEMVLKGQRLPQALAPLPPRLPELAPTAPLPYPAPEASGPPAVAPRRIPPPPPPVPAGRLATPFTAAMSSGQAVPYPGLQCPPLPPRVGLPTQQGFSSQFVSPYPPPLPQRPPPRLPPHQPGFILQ

[2] = target: T2, ALIX, full-length, Cy3-labeled (human, UniProt Q8WUM4 1-868, sulpho-Cy3 maleimide on native surface-exposed cysteines); experiment: recruitment to giant unilamellar vesicles (GUVs), confocal fluorescence microscopy; ALIX pathway: ALG-2 200 nM, ALIX 100 nM, with or without CHMP4B 10 nM, incubated 15 min in reaction buffer (25 mM Hepes pH 7.4, 125 mM NaCl, 0.2 mM TCEP), then added to 30% DOPS GUVs and imaged after 15 min at room temperature; read-out: puncta on the GUV periphery and their colocalization; conditions: both partners purified
T2 construct: ALIX (PDCD6IP), ESCRT accessory protein with Bro1 domain, V domain and proline-rich domain; also called ALIX (Cy3); source: HEK293 cells, purified (StrepTactin Sepharose, gel filtration)
T2 sequence (looked up): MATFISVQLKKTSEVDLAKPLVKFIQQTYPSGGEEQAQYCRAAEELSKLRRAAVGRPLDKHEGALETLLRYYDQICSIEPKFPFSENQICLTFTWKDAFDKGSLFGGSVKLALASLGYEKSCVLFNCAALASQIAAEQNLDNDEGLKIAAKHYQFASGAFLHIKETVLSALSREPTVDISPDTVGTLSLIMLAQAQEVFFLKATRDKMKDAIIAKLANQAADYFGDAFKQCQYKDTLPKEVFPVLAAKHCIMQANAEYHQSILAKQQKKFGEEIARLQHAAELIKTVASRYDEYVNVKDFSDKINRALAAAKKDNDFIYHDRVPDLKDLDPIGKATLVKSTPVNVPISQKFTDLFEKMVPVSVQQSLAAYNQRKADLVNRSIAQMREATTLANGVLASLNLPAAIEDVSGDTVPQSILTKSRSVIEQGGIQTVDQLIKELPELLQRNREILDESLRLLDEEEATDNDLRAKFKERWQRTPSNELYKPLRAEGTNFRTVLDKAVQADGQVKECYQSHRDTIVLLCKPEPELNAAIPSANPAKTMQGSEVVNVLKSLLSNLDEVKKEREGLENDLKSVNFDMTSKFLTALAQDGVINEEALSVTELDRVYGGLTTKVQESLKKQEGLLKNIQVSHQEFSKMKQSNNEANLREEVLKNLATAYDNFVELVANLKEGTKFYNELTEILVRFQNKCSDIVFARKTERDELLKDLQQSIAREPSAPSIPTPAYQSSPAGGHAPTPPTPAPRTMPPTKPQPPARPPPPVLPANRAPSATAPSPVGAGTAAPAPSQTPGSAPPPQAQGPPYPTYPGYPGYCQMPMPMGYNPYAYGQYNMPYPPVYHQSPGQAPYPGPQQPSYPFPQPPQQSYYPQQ

B1: ALG-2, fluorescently labeled (Atto 488) via A78C (natural protein, UniProt O75340 1-191, looked up)
chain: MAAYSYRPGPGAGPGPAAGAALPDQSFLWNVFQRVDKDRSGVISDTELQQALSNGTWTPFNPVTVRSIISMFDRENKCGVNFSEFTGVWKYITDWQNVFRTYDRDNSGMIDKNELKQALSGFGYRLSDQFHDILIRKFDRQGRGQIAFDDFIQGCIVLQRLTDIFRRYDTDQDGWIQVSYEQYLSMVFSIV
modifications: Atto 488 maleimide on the cysteine of A78C (25% labeling efficiency)
notes: also called ALG-2 (Atto 488); labeled ALG-2; source: E. coli BL21 (DE3), purified (Ni-NTA, gel filtration, anion exchange, gel filtration)
[1]
  binding result: binds
[2]
  binding result: binds
